In US20180339017A1 (Merck Sharp & Dohme, published 2018):
Like-named read-outs stand apart in the source and are kept apart here. Starred links: 1 amine or outer side, 2 acyl side, 3 side chain; linkers in the order of their positions; H or OH if unused. Non-standard residues stand in square brackets, D forms with d. Groups on a side chain read outwards from the residue. No end group written: not given here. *: point of attachment. γGlu = O=C(O)[C@H](CCC(=O)[*:2])N[*:1]; Palmitoyl = CCCCCCCCCCCCCCCC(=O)*

Experiments:
Assay in all cases: cell-based or functional assay
[1] = target: T1, human glucagon receptor (human, UniProt P47871 26-477)
[2] = target: T2, human GLP-1 receptor (human, UniProt P43220 24-463)
[3] = target: T1, human glucagon receptor; remark: listed apart in the source
[4] = target: T2, human GLP-1 receptor; remark: listed apart in the source

T1 sequence (P47871 26-477): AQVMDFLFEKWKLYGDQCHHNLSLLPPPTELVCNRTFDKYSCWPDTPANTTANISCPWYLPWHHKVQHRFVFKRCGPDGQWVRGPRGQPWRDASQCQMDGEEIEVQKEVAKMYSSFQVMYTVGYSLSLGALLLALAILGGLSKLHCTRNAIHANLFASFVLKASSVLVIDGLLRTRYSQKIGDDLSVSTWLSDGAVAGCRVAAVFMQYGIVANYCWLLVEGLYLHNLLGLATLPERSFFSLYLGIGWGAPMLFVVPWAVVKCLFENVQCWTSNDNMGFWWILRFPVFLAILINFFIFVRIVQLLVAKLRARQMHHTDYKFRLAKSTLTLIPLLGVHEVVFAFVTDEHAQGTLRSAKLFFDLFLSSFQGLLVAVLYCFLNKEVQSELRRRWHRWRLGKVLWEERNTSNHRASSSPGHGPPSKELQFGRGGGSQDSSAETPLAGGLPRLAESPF

EC50 hGCGR (cAMP activity assay) [1] [nM]	EC50 hGLP1 (cAMP activity assay) [2] [nM]	EC50 hGCGR (cAMP activity assay) [3] [nM]	EC50 hGLP1R (cAMP activity assay) [4] [nM]	Binder
0.02	0.05	–	–	H[dS]QGTFTSDK([γGlu-γGlu-Palmitoyl])SKYLDARAAHDFVQWLLNT-NH2 (N-terminus assumed; SMILES CCCCCCCCCCCCCCCC(=O)N[C@@H](CCC(=O)N[C@@H](CCC(=O)NCCCC[C@H](NC(=O)[C@H](CC(=O)O)NC(=O)[C@H](CO)NC(=O)[C@@H](NC(=O)[C@H](Cc1ccccc1)NC(=O)[C@@H](NC(=O)CNC(=O)[C@H](CCC(N)=O)NC(=O)[C@@H](CO)NC(=O)[C@@H](N)Cc1c[nH]cn1)[C@@H](C)O)[C@@H](C)O)C(=O)N[C@@H](CO)C(=O)N[C@@H](CCCCN)C(=O)N[C@@H](Cc1ccc(O)cc1)C(=O)N[C@@H](CC(C)C)C(=O)N[C@@H](CC(=O)O)C(=O)N[C@@H](C)C(=O)N[C@@H](CCCNC(=N)N)C(=O)N[C@@H](C)C(=O)N[C@@H](C)C(=O)N[C@@H](Cc1c[nH]cn1)C(=O)N[C@@H](CC(=O)O)C(=O)N[C@@H](Cc1ccccc1)C(=O)N[C@H](C(=O)N[C@@H](CCC(N)=O)C(=O)N[C@@H](Cc1c[nH]c2ccccc12)C(=O)N[C@@H](CC(C)C)C(=O)N[C@@H](CC(C)C)C(=O)N[C@@H](CC(N)=O)C(=O)N[C@H](C(N)=O)[C@@H](C)O)C(C)C)C(=O)O)C(=O)O) [TP559]
0.01	0.02	–	–	H[dS]QGTFTSDK([γGlu-γGlu-Palmitoyl])SKYLDNKRAQDFVQWLMQT-NH2 (N-terminus assumed; SMILES CCCCCCCCCCCCCCCC(=O)N[C@@H](CCC(=O)N[C@@H](CCC(=O)NCCCC[C@H](NC(=O)[C@H](CC(=O)O)NC(=O)[C@H](CO)NC(=O)[C@@H](NC(=O)[C@H](Cc1ccccc1)NC(=O)[C@@H](NC(=O)CNC(=O)[C@H](CCC(N)=O)NC(=O)[C@@H](CO)NC(=O)[C@@H](N)Cc1c[nH]cn1)[C@@H](C)O)[C@@H](C)O)C(=O)N[C@@H](CO)C(=O)N[C@@H](CCCCN)C(=O)N[C@@H](Cc1ccc(O)cc1)C(=O)N[C@@H](CC(C)C)C(=O)N[C@@H](CC(=O)O)C(=O)N[C@@H](CC(N)=O)C(=O)N[C@@H](CCCCN)C(=O)N[C@@H](CCCNC(=N)N)C(=O)N[C@@H](C)C(=O)N[C@@H](CCC(N)=O)C(=O)N[C@@H](CC(=O)O)C(=O)N[C@@H](Cc1ccccc1)C(=O)N[C@H](C(=O)N[C@@H](CCC(N)=O)C(=O)N[C@@H](Cc1c[nH]c2ccccc12)C(=O)N[C@@H](CC(C)C)C(=O)N[C@@H](CCSC)C(=O)N[C@@H](CCC(N)=O)C(=O)N[C@H](C(N)=O)[C@@H](C)O)C(C)C)C(=O)O)C(=O)O) [TP534]
0.02	0.02	0.02	0.02	HSQGTFTSDYSKYLDSRRAHDFVQWLLNT-NH2 [PD29]
0.02	0.05	–	–	H[dS]QGTFTSDK([γGlu-γGlu-Palmitoyl])SKYLDSRRAHDFVQWLLNT-NH2 (N-terminus assumed; SMILES CCCCCCCCCCCCCCCC(=O)N[C@@H](CCC(=O)N[C@@H](CCC(=O)NCCCC[C@H](NC(=O)[C@H](CC(=O)O)NC(=O)[C@H](CO)NC(=O)[C@@H](NC(=O)[C@H](Cc1ccccc1)NC(=O)[C@@H](NC(=O)CNC(=O)[C@H](CCC(N)=O)NC(=O)[C@@H](CO)NC(=O)[C@@H](N)Cc1c[nH]cn1)[C@@H](C)O)[C@@H](C)O)C(=O)N[C@@H](CO)C(=O)N[C@@H](CCCCN)C(=O)N[C@@H](Cc1ccc(O)cc1)C(=O)N[C@@H](CC(C)C)C(=O)N[C@@H](CC(=O)O)C(=O)N[C@@H](CO)C(=O)N[C@@H](CCCNC(=N)N)C(=O)N[C@@H](CCCNC(=N)N)C(=O)N[C@@H](C)C(=O)N[C@@H](Cc1c[nH]cn1)C(=O)N[C@@H](CC(=O)O)C(=O)N[C@@H](Cc1ccccc1)C(=O)N[C@H](C(=O)N[C@@H](CCC(N)=O)C(=O)N[C@@H](Cc1c[nH]c2ccccc12)C(=O)N[C@@H](CC(C)C)C(=O)N[C@@H](CC(C)C)C(=O)N[C@@H](CC(N)=O)C(=O)N[C@H](C(N)=O)[C@@H](C)O)C(C)C)C(=O)O)C(=O)O) [TP535]
0.02	5	–	–	H[dS]QGTFLSDYSKLLDSRAAQDFVQWLLQT-NH2 (N-terminus assumed; SMILES CC(C)C[C@H](NC(=O)[C@H](CC(C)C)NC(=O)[C@H](CCCCN)NC(=O)[C@H](CO)NC(=O)[C@H](Cc1ccc(O)cc1)NC(=O)[C@H](CC(=O)O)NC(=O)[C@H](CO)NC(=O)[C@H](CC(C)C)NC(=O)[C@H](Cc1ccccc1)NC(=O)[C@@H](NC(=O)CNC(=O)[C@H](CCC(N)=O)NC(=O)[C@@H](CO)NC(=O)[C@@H](N)Cc1c[nH]cn1)[C@@H](C)O)C(=O)N[C@@H](CC(=O)O)C(=O)N[C@@H](CO)C(=O)N[C@@H](CCCNC(=N)N)C(=O)N[C@@H](C)C(=O)N[C@@H](C)C(=O)N[C@@H](CCC(N)=O)C(=O)N[C@@H](CC(=O)O)C(=O)N[C@@H](Cc1ccccc1)C(=O)N[C@H](C(=O)N[C@@H](CCC(N)=O)C(=O)N[C@@H](Cc1c[nH]c2ccccc12)C(=O)N[C@@H](CC(C)C)C(=O)N[C@@H](CC(C)C)C(=O)N[C@@H](CCC(N)=O)C(=O)N[C@H](C(N)=O)[C@@H](C)O)C(C)C) [TP552]
0.16	0.05	–	–	HSQGTFTSDYSKYLDNKRAQDFVQWLMQT-NH2 [PD37]
0.04	5	–	–	H[dS]QGTFLSDK([γGlu-γGlu-Palmitoyl])SKLLDSRRAQDFVQWLMQT-NH2 (N-terminus assumed; SMILES CCCCCCCCCCCCCCCC(=O)N[C@@H](CCC(=O)N[C@@H](CCC(=O)NCCCC[C@H](NC(=O)[C@H](CC(=O)O)NC(=O)[C@H](CO)NC(=O)[C@H](CC(C)C)NC(=O)[C@H](Cc1ccccc1)NC(=O)[C@@H](NC(=O)CNC(=O)[C@H](CCC(N)=O)NC(=O)[C@@H](CO)NC(=O)[C@@H](N)Cc1c[nH]cn1)[C@@H](C)O)C(=O)N[C@@H](CO)C(=O)N[C@@H](CCCCN)C(=O)N[C@@H](CC(C)C)C(=O)N[C@@H](CC(C)C)C(=O)N[C@@H](CC(=O)O)C(=O)N[C@@H](CO)C(=O)N[C@@H](CCCNC(=N)N)C(=O)N[C@@H](CCCNC(=N)N)C(=O)N[C@@H](C)C(=O)N[C@@H](CCC(N)=O)C(=O)N[C@@H](CC(=O)O)C(=O)N[C@@H](Cc1ccccc1)C(=O)N[C@H](C(=O)N[C@@H](CCC(N)=O)C(=O)N[C@@H](Cc1c[nH]c2ccccc12)C(=O)N[C@@H](CC(C)C)C(=O)N[C@@H](CCSC)C(=O)N[C@@H](CCC(N)=O)C(=O)N[C@H](C(N)=O)[C@@H](C)O)C(C)C)C(=O)O)C(=O)O) [TP536]
